Test results published in paper PMC3912326.
Where two headings read alike, the source gives them in different places.

Tests used:
Assay in all cases: fluorescence anisotropy
transferrin (Tf) = transferrin (Tf) (UniProt P02787 20-698)
[1] = target: T1, mouse transferrin receptor (mTfR) (Mus musculus, UniProt Q62351 89-763)
[2] = target: human transferrin receptor (hTfR) (Homo sapiens, UniProt P02786 89-760)
[3] = target: T1, mouse transferrin receptor (mTfR); remark: listed apart in the source
[4] = target: T1, mouse transferrin receptor (mTfR); remark: listed apart in the source

T1 sequence (Q62351 89-763): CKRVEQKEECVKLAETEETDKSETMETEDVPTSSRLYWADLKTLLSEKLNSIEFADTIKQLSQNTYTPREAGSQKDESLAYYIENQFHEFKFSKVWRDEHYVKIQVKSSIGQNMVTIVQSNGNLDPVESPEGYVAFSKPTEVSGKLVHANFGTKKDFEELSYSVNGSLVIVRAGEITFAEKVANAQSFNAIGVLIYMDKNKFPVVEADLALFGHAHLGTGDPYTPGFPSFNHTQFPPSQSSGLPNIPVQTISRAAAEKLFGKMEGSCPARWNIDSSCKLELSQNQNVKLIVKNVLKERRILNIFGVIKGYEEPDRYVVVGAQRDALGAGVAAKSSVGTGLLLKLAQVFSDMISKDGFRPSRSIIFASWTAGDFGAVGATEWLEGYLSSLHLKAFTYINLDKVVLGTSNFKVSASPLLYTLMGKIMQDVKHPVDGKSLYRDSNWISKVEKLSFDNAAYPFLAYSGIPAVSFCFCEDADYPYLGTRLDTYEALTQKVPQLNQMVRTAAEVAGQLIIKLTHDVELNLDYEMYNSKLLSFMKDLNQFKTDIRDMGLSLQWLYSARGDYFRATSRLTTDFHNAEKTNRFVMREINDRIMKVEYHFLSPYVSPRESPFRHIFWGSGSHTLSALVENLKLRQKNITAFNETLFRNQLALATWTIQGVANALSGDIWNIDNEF
human transferrin receptor (hTfR), sequence (P02786 89-760): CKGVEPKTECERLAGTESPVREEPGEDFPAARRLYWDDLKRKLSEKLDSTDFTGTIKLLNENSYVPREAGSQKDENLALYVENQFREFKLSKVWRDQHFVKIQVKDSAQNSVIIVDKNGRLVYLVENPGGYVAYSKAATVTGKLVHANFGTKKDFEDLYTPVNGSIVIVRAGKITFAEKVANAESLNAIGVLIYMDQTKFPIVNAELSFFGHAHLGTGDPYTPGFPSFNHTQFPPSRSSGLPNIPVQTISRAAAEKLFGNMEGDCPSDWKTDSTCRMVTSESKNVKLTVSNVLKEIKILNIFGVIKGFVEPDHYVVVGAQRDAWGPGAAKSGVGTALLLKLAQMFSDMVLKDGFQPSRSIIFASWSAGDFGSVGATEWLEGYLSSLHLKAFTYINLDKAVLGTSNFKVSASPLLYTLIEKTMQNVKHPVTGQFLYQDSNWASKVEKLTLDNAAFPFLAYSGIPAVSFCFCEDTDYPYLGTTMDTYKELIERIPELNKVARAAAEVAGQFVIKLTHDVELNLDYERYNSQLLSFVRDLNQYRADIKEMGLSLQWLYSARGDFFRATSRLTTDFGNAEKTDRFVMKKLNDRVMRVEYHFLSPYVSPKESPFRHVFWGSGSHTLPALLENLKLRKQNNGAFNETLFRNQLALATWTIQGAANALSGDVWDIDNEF
transferrin (Tf), sequence (P02787 20-698): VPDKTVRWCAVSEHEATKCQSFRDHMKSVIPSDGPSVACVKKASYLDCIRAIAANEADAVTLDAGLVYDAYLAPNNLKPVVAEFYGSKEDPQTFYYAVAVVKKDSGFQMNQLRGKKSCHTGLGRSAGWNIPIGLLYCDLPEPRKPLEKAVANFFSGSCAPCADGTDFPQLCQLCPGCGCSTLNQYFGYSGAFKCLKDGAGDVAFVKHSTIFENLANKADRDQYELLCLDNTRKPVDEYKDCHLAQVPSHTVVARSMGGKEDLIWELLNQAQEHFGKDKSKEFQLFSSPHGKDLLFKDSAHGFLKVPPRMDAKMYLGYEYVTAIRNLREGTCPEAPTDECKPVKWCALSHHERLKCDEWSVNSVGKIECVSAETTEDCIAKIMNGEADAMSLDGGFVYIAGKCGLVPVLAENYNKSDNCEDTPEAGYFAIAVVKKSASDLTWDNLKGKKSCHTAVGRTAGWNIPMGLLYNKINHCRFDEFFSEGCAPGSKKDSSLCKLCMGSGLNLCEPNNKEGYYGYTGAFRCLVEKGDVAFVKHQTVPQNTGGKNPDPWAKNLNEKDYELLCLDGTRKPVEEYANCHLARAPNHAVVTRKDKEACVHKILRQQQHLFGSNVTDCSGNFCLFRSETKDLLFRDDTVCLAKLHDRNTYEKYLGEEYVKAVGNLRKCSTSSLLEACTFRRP

B1: GS24 (equilibrium mixture A-1F:A-2F 20:80) (structured_DNA)
DNA: GCGTGTGCACACGGTCACTTAGTATCGCTACGTTCTTTGGTTCCGTTCGG
modifications: 5' amino C6 linker
With B1 the binding result (transferrin (Tf)) was “no binding”, the Kd [1] was 250 ± 40 nM and the Kd [2] was 1000 ± 250 nM.

B2: GS24 fold A-2F (purified active fold) (structured_DNA)
DNA: GCGTGTGCACACGGTCACTTAGTATCGCTACGTTCTTTGGTTCCGTTCGG
modifications: 5' amino C6 linker
In the case of B2, the Kd [3] is reported as 130 ± 30 nM.

B3: GS24min (structured_DNA)
DNA: CACTTAGTATCGCTACGTTCTTTGGTTCCGTTCGG
modifications: 5' amino C6 linker
In the case of B3, the Kd [4] is reported as 1200 ± 390 nM.
